These results are taken from publication PMC6783313.

This experiment has as its target ClpP1(S98A) from Listeria monocytogenes (Listeria monocytogenes). Description: cryo-EM structure.

For orientation: stoichiometry N means the number of molecules, sites or subunits per partner or assembly. The substance “ClpP1(S98A) from Listeria monocytogenes (natural protein)” displayed a stoichiometry N of 7.
